Laboratory results from PMC3642240, “Cloning, Expression and Characterization of 3-Hydroxyisobutyrate Dehydrogenase from Pseudomonas denitrificans ATCC 13867” (PLoS ONE, 2013).

Experiments:
Assay in all cases: purified protein
purified protein [1] = substrate: O=C(O)CCO; details: 2 mM NAD+, 100 mM Tris-HCl pH 9.0, 30 °C
purified protein [2] = substrate: COC(=O)[C@@H](C)CO; details: 2 mM NAD+, 100 mM Tris-HCl pH 9.0, 30 °C
purified protein [3] = substrate: NC(=O)c1ccc[n+]([C@@H]2O[C@H](COP(=O)(O)OP(=O)(O)OC[C@H]3O[C@@H](n4cnc5c(N)ncnc54)[C@H](O)[C@@H]3O)[C@@H](O)[C@H]2O)c1; details: 3 mM 3-hydroxypropionate, NAD+ 0.025-4 mM, 100 mM Tris-HCl pH 9.0, 30 °C, varied: cofactor
purified protein [4] = substrate: C[C@@H](CO)C(=O)O; details: 2 mM NAD+, 100 mM Tris-HCl pH 9.0, 30 °C
purified protein [5] = substrate: CC(N)(CO)C(=O)O; details: 2 mM NAD+, 100 mM Tris-HCl pH 9.0, 30 °C

B1: 3HIBDH-IV (Pseudomonas sp. ATCC 13867) (protein)
chain: MRIGFIGLGNMGGPMAANLLKAGFDLSVFDLSAKAVAAAVALGARALASPAEVARDDVEVIITMLPAAAHVKQVFLGEDGLLANVQPGVLLIDSSTIDPLNAREVSAAALAHGNPMLDAPVSGGTAGAAAGTLTFMVGGEPADFERARPALAAMGKNIVHCGGTGNGQVAKVANNLLLGISMIGVAEAMSLGVKLGMDADVLAGIINTSSGRCWSSEVNNPLTGAPAARGYSGGFGTDLMLKDLGLASEAARQVRQPVLLGALAQQLFQTFSNQGNGQLDFSAIVKLYEQG
- Km (purified protein [1]): 1055 ± 35 µM
- Vmax (purified protein [1]): 20.2 µmol/min/mg
- kcat (purified protein [1]): 10.8 ± 0.945 s⁻¹
- kcat/Km (purified protein [1]): 10200 ± 699 M⁻¹ s⁻¹
- Km (purified protein [2]): 25142 ± 1667 µM
- Vmax (purified protein [2]): 67 µmol/min/mg
- kcat (purified protein [2]): 35.8 ± 3.3 s⁻¹
- kcat/Km (purified protein [2]): 1430 ± 231 M⁻¹ s⁻¹
- Km (purified protein [3]): 164 ± 37 µM
- Vmax (purified protein [3]): 12.6 µmol/min/mg
- kcat (purified protein [3]): 6.72 ± 0.126 s⁻¹
- kcat/Km (purified protein [3]): 42400 ± 10900 M⁻¹ s⁻¹
- Km (purified protein [4]): 178 ± 10 µM
- Vmax (purified protein [4]): 151 µmol/min/mg
- kcat (purified protein [4]): 80.8 ± 1.1 s⁻¹
- kcat/Km (purified protein [4]): 455000 ± 33000 M⁻¹ s⁻¹
- Km (purified protein [5]): 24180 ± 3169 µM
- Vmax (purified protein [5]): 12.4 µmol/min/mg
- kcat (purified protein [5]): 6.62 ± 0.475 s⁻¹
- kcat/Km (purified protein [5]): 275 ± 16 M⁻¹ s⁻¹
